Read-outs that look alike come from different tables or passages of the source. Starred links: 1 amine or outer side, 2 acyl side, 3 side chain; linkers in the order of their positions; H or OH if unused. Positions of bridges follow the written chain, without caps; N, C: chain ends. Non-standard residues stand in square brackets, D forms with d. Residues, ends and D or L forms follow the SMILES beside them. *: point of attachment. X1 = CN(CCCN1CCN(*)CC1)c1ccc2nccc(C(=O)NCC(=O)N3CC(F)(F)C[C@H]3C#N)c2c1; DOTA = O=C(O)CN1CCN(CC(=O)O)CCN(CC(=O)*)CCN(CC(=O)O)CC1; dPhe(4-NHCONH2) = NC(=O)Nc1ccc(C[C@@H](N)C(=O)O)cc1; Phe(4-Cl) = N[C@@H](Cc1ccc(Cl)cc1)C(=O)O; Suc = O=C(CCC(=O)[*:2])[*:1]; AEEEA = NCCOCCOCCOCC(=O)O
How the values were obtained:
SSTR2 [1] = target: T1, SSTR2 (Homo sapiens, UniProt P30874); test: SSTR2 receptor binding assay on HT-1080-SSTR2 cells; details: read-out: half-maximal inhibitory concentration, SSTR2 binding
T1 construct: expressed in transfected cells
Procedure: (§1) Information on cell resources, transfection, and culture is provided in the supplemental materials. For in vitro studies, the cells were seeded in 24-well plates and cultured in a routine medium until they reached approximately 80% confluence. During the experiment, the medium was replaced with a fetal bovine serum–free medium. […] After a 60-min incubation period, the free tracer was removed using phosphate-buffered saline before measurement. The cells were lysed with 0.5 mL of 1 M NaOH, and radioactivity was subsequently gauged using a γ-counter (Wizard 2480; PerkinElmer Inc.).

human FAP = target: T2, human FAP (Homo sapiens, UniProt Q12884); test: FAP radioligand binding assay on HT-1080-FAP cells; details: read-out: half-maximal inhibitory concentration, FAP binding
T2 construct: expressed in transfected cells
T2 sequence (Q12884 1-760): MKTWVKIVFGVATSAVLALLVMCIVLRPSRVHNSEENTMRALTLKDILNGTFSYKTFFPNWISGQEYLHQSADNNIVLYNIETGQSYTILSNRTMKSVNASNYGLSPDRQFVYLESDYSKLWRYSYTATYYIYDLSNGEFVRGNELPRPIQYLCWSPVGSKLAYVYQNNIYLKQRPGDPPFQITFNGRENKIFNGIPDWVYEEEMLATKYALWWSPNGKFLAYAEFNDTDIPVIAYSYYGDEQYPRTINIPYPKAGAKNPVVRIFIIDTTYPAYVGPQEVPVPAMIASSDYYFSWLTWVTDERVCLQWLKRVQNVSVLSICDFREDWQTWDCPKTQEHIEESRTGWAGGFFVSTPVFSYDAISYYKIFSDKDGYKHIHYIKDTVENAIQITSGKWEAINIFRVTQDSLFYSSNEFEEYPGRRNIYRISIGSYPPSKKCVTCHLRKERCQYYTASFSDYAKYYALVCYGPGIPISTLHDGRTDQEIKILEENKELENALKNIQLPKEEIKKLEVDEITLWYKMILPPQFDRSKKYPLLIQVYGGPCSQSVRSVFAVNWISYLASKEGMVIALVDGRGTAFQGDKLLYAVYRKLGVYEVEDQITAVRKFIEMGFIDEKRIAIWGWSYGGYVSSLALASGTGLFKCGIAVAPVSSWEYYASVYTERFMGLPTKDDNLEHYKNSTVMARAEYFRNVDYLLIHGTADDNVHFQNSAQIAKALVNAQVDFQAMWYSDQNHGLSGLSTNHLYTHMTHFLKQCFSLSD
Procedure: as §1

[2] = test system: nasopharyngeal carcinoma lesions; details: human, in vivo
in vivo [3] = details: BALB/c nude, mouse, iv, 7.4 MBq, total radioactivity, tumor uptake (PET)
Procedure: (§2) Tumor-bearing mice (3/group) were intravenously injected with approximately 7.4 MBq of ^68Ga-FAPI-LM3, ^68Ga-FAPI-46, or ^68Ga-DOTA-LM3. Subsequent static PET scans were obtained at intervals of 0.5, 1, 2, and 4 h after injection using an Inveon small-animal PET scanner (Siemens). In the blocking experiment, approximately 60 nmol of the unlabeled precursor (FAPI-46, DOTA-LM3, or FAPI-46 plus DOTA-LM3) were simultaneously injected with ^68Ga-FAPI-LM3. The PET images were reconstructed iteratively using 3-dimensional OpMAP 256 (PET reconstruction protocol [.pPetRcn]; Siemens Healthineers AG) and converted to percentage injected dose per gram of tissue (%ID/g) by delineating the regions of interest. For the biodistribution studies, approximately 1.48 MBq of ^68Ga-FAPI-LM3, ^68Ga-FAPI-46, ^68Ga-DOTA-LM3, or ^68Ga-FAPI-LM3 with unlabeled precursor were injected into tumor-bearing mice (3/group), and different groups of mice were euthanized at the scheduled time points after injection.

clinical = details: human, in vivo, total radioactivity; for SUV: Median SUVmax; for SUV at 1 h: SUVmax
[4] = test system: HT-1080-FAP–plus–HT-1080-SSTR2 xenografts; details: mouse
Procedure: as §2

[5] = human, in vivo
[6] = test system: HT-1080-FAP, HT-1080-SSTR2, HT-1080-FAP–plus–HT-1080-SSTR2, C666-1, U87MG cells; test: Cellular uptake test and blocking experiments; format: cell-based, human; details: 60 min, with 10 nmol unlabeled FAPI-46, DOTA-LM3 or both; all P < 0.05
Procedure: as §1

in vitro = in vitro ADME, bovine; details: serum
Procedure: Information regarding the reagents, chemicals, high-performance liquid chromatography, liquid chromatography–mass spectrometry, and flow diagram of the synthesis of FAPI-LM3 are provided in the supplemental materials (available at http://jnm.snmjournals.org ([16])). The radiolabeling of FAPI-46, DOTA-LM3, and FAPI-LM3 precursors with ^68Ga was performed following similar procedures. In brief, 25 nmol of the precursor in 1 mL of sodium acetate buffer (0.25 M, pH 8.2–8.3) was allowed to react with 4 mL of ^68Ga solution (1.3 GBq in 0.6 M HCl) at 100°C for 15 min. For clinical imaging, the final product was passed through a 0.22-μm Millipore filter for sterilization in each ^68Ga-FAPI-LM3 preparation process. The stability of ^68Ga-FAPI-LM3 was determined by incubating the product in phosphate-buffered saline and fetal bovine serum at 37°C and analyzing it via radio–high-performance liquid chromatography after 1 and 2 h of incubation.

[7] = test system: HT-1080-FAP–plus–HT-1080-SSTR2 tumor xenograft; test: Small-animal PET imaging; details: 1 h after injection
Procedure: as §2

in vivo [8] = details: BALB/c nude, mouse, 1.48 MBq, total radioactivity
Procedure: as §2

SSTR2 [9] = details: cited from earlier work
From the text: Within the domain of nuclear medicine, several targets, such as somatostatin receptor 2 (SSTR2), prostate-specific membrane antigen, and FAP, have emerged as prominent subjects of research ([7],[8]). Epstein–Barr virus latent membrane protein 1 can upregulate SSTR2 expression via the NF-κB pathway ([9]). Both FAP and SSTR2 are important markers in the biology of NPC, as evidenced by the plethora of such PET radiopharmaceuticals, including ^68Ga-FAPI for imaging cancer-associated fibroblasts and ^68Ga-DOTATATE for imaging SSTR2 ([10],[11]).

T1 sequence (P30874 whole entry): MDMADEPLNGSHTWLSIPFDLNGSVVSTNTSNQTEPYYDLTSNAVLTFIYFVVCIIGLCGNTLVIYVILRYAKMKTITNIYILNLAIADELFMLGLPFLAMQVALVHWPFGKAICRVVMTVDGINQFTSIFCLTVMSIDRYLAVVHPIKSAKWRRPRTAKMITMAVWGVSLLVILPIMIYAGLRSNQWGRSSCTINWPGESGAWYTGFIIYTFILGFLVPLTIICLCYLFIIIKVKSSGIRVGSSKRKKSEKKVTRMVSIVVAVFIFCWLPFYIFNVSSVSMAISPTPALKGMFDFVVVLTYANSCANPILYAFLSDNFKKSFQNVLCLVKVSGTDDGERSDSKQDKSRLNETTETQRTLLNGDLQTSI

## C[C@@H](O)[C@@H]1NC(=O)[C@H](CCCCN)NC(=O)[C@@H](Cc2ccc(NC(N)=O)cc2)NC(=O)[C@H](Cc2ccc(O)cc2)NC(=O)[C@H](NC(=O)[C@H](Cc2ccc(Cl)cc2)NC(=O)CN2CCN(CC(=O)O)CCN(CC(=O)O)CCN(CC(=O)O)CC2)CSSC[C@@H](C(=O)N[C@H](Cc2ccc(O)cc2)C(N)=O)NC1=O [DOTA-LM3, reference compound] ({DOTA}-[Phe(4-Cl)][dC]Y[dPhe(4-NHCONH2)]KTC[dY]-NH2; disulfide 2-7)
SSTR2 [1]
  IC50: 1.3 nM

## CN(CCCN1CCN(C(=O)CN2CCN(CC(=O)O)CCN(CC(=O)O)CCN(CC(=O)O)CC2)CC1)c1ccc2nccc(C(=O)NCC(=O)N3CC(F)(F)C[C@H]3C#N)c2c1 [FAPI-46, reference compound]
Human FAP; HT-1080-FAP cells, radioligand 68Ga-FAPI-46, 60 min incubation, 8.16 × 10^−5 to 10^−13 M, n = 3
  IC50: 4.39 nM

## C[C@@H](O)[C@@H]1NC(=O)[C@H](CCCCN)NC(=O)[C@@H](Cc2ccc(NC(N)=O)cc2)NC(=O)[C@H](Cc2ccc(O)cc2)NC(=O)[C@H](NC(=O)[C@H](Cc2ccc(Cl)cc2)NC(=O)[C@H](CCCCNC(=O)CN2CCN(CC(=O)O)CCN(CC(=O)O)CCN(CC(=O)O)CC2)NC(=O)CCC(=O)NCCOCCOCCOCC(=O)N2CCN(CCCN(C)c3ccc4nccc(C(=O)NCC(=O)N5CC(F)(F)C[C@H]5C#N)c4c3)CC2)CSSC[C@@H](C(=O)N[C@H](Cc2ccc(O)cc2)C(N)=O)NC1=O [FAPI-LM3] ({X1-AEEEA-Suc}-K(DOTA)[Phe(4-Cl)][dC]Y[dPhe(4-NHCONH2)]KTC[dY]-NH2; disulfide 3-8)
SSTR2 [1]
  IC50: 13.2 nM
Human FAP
  IC50: 11.7 nM

## OC[C@H]1OC(O)[C@H]([18F])[C@@H](O)[C@@H]1O (stereo partly shown) [^18F-FDG]
[2]
  Median SUVmax, Distant LN mets: 8.2 (2.0–9.0)
  Median SUVmax, Peritoneal mets: 3.4 (1.5–8.6)
  Median SUVmax, Pleural mets: 7.2 (3.7–12.0)

## C[C@@H](O)[C@@H]1NC(=O)[C@H](CCCCN)NC(=O)[C@@H](Cc2ccc(NC(N)=O)cc2)NC(=O)[C@H](Cc2ccc(O)cc2)NC(=O)[C@H](NC(=O)[C@H](Cc2ccc(Cl)cc2)NC(=O)[C@H](CCCCNC(=O)CN2CCN(CC(=O)O)CCN(CC(=O)O)CCN(CC(=O)O)CC2)NC(=O)CCC(=O)NCCOCCOCCOCC(=O)N2CCN(CCCN(C)c3ccc4nccc(C(=O)NCC(=O)N5CC(F)(F)C[C@H]5C#N)c4c3)CC2)CSSC[C@@H](C(=O)N[C@H](Cc2ccc(O)cc2)C(N)=O)NC1=O [^68Ga-FAPI-LM3, metal not drawn] ({X1-AEEEA-Suc}-K(DOTA)[Phe(4-Cl)][dC]Y[dPhe(4-NHCONH2)]KTC[dY]-NH2; disulfide 3-8)
In vivo [3]
  tissue uptake at 0.5 h: 14 ± 0.47 %ID/g
  tissue uptake at 1 h: 14.4 ± 0.67 %ID/g
  tissue uptake at 2 h: 14.4 ± 0.68 %ID/g
  tissue uptake at 4 h: 13.8 ± 0.68 %ID/g
clinical; Bone mets
  SUV: 11.2 SUV
clinical; Distant LN mets
  SUV: 16.9 SUV
clinical; Liver mets
  SUV: 16.5 SUV
clinical; Peritoneal mets
  SUV: 13.1 SUV
clinical; Pleural mets
  SUV: 17.3 SUV
clinical; Primary
  SUV: 13.8 SUV
clinical; Regional LN mets
  SUV: 11.4 SUV
clinical; Total distant metastases
  SUV: 14.6 SUV
clinical; bone metastases
  SUV at 1 h: 10.4 SUV
clinical; distant lymph node metastases
  SUV at 1 h: 14.5 SUV
clinical; liver metastases
  SUV at 1 h: 14.3 SUV
clinical; regional lymph node metastases
  SUV at 1 h: 10.1 SUV
[4]
  uptake in blood (ex vivo biodistribution): high
[5]
  Effective dose equivalent, Mean: 1.20E–03 mSv/MBq
  dosimetry, Adrenal glands, Mean: 5.98E–05 mSv/MBq
  dosimetry, Brain, Mean: 1.63E–06 mSv/MBq
  dosimetry, Breasts, Mean: 3.47E–05 mSv/MBq
  dosimetry, Kidneys, Mean: 1.08E–04 mSv/MBq
  dosimetry, LLI wall (lower large intestine), Mean: 4.34E–04 mSv/MBq
  dosimetry, Liver, Mean: 1.28E–03 mSv/MBq
  dosimetry, Lungs, Mean: 7.68E–04 mSv/MBq
  dosimetry, Muscle, Mean: 1.57E–05 mSv/MBq
  dosimetry, Osteogenic cells, Mean: 4.22E–05 mSv/MBq
  dosimetry, Ovaries, Mean: 3.66E–04 mSv/MBq
  dosimetry, Pancreas, Mean: 1.23E–04 mSv/MBq
  dosimetry, Red marrow, Mean: 7.62E–04 mSv/MBq
  dosimetry, Skin, Mean: 6.29E–06 mSv/MBq
  dosimetry, Small intestine, Mean: 2.71E–05 mSv/MBq
  dosimetry, Spleen, Mean: 1.23E–04 mSv/MBq
  dosimetry, Stomach wall, Mean: 4.04E–04 mSv/MBq
  dosimetry, Thyroid, Mean: 3.68E–06 mSv/MBq
  dosimetry, ULI wall (upper large intestine), Mean: 1.53E–05 mSv/MBq
  dosimetry, Urinary bladder wall, Mean: 2.14E–03 mSv/MBq
  dosimetry, Uterus, Mean: 2.19E–04 mSv/MBq
[6]
  binding to FAP or SSTR2 with corresponding unlabeled agent: significantly blocked
In vitro
  remaining at 2 h: > 99%
[7]; unlabeled DOTA-LM3
  blockade of tumor uptake: 62%
[7]; unlabeled FAPI-46
  blockade of tumor uptake: 63%
[7]; unlabeled FAPI-46 plus DOTA-LM3
  blockade of tumor uptake: 93%
In vivo [8]
  tissue uptake at 1 h: 14.8 ± 0.76 %ID/g
  tissue uptake at 4 h: 17.7 ± 2.46 %ID/g
[2]
  physiologic uptake in normal organs: intense physiologic uptake

## p-Cl-Phe-cyclo(D-Cys-Tyr-D-4-amino-Phe(carbamoyl)-Lys-Thr-Cys)D-Tyr-NH2 (disulfide) [LM3, SSTR2 antagonist peptide]
SSTR2 [9]
  binding affinity to SSTR2: high
  internalization rate: low

Source: publication PMC10924156, “Design, Preclinical Evaluation, and Clinical Translation of ^68Ga-FAPI-LM3, a Heterobivalent Molecule for PET Imaging of Nasopharyngeal Carcinoma” (Journal of Nuclear Medicine, 2024)
